Laboratory results from publication PMC5507214.

Target: RPA (Homo sapiens, UniProt P27694;P15927;P35244 1-616;1-270;1-121)
Assay: EMSA

RPA, sequence (P27694 whole entry, chain 1 of 3): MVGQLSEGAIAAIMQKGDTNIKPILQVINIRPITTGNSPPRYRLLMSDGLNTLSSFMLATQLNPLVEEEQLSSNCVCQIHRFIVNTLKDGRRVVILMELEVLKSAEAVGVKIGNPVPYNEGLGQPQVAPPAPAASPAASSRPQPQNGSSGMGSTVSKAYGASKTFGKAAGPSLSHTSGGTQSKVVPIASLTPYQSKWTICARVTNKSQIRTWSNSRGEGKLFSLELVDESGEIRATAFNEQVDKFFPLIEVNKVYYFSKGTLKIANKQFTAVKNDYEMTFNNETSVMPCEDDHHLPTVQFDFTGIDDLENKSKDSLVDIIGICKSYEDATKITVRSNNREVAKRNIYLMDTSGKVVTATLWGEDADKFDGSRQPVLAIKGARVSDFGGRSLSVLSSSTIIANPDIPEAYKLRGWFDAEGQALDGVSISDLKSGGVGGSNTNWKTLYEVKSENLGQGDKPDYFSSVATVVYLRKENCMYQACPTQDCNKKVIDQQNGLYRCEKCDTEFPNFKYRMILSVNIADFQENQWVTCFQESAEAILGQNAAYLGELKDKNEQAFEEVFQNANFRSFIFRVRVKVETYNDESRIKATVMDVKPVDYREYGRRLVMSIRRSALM
RPA, sequence (P15927 whole entry, chain 2 of 3): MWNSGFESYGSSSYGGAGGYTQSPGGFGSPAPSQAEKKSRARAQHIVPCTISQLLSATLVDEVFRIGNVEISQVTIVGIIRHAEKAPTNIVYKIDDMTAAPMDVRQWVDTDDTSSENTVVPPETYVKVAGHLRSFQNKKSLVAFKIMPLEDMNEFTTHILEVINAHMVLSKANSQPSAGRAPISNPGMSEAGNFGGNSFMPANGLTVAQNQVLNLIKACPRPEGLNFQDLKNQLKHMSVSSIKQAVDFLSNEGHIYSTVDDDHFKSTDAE
RPA, sequence (P35244 whole entry, chain 3 of 3): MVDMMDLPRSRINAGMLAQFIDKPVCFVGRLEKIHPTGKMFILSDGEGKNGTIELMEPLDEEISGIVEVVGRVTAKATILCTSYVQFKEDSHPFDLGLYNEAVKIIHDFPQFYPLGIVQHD

B1: R:D (25-bp RNA:DNA hybrid) (DNA:RNA)
RNA: GCAGCUGGCACGACAGGUAUGAAUC
DNA: GATTCATACCTGTCGTGCCAGCTGC
B1: no binding.
